For 1 sequence, frequency of TNFα+ NK cells after A549 spheroid co-culture (isotype control) and restimulation with PVR+ K562 cells and loss in the IFNγ generation capacity of A549 spheroid-exposed PM21-NK cells results are on record in patent publication US20240226168A1.

This assay deals with poliovirus receptor (PVR) (UniProt P15151). In words: cell-based or functional assay.
Chain of poliovirus receptor (PVR) (P15151 21-417 limits assumed): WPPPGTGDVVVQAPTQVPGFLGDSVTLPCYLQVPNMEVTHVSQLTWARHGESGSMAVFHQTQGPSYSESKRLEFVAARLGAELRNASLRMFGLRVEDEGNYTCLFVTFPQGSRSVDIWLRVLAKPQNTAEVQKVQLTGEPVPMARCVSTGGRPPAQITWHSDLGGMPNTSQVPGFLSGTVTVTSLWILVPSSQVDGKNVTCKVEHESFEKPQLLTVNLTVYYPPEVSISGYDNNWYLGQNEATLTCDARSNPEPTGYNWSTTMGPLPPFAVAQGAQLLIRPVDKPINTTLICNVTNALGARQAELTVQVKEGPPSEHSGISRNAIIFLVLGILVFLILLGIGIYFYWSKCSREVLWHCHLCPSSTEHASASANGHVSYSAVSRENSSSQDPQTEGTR

“T cell immunoreceptor with Ig and ITIM domains (TIGIT) (from UniProt Q495A1 22-244)” returned a frequency of TNFα+ NK cells after A549 spheroid co-culture (isotype control) and restimulation with PVR+ K562 cells of 15%; a loss in the IFNγ generation capacity of A549 spheroid-exposed PM21-NK cells of 30%.
